Measurements from IntAct's records for PubMed 28776325.

What was measured:
rab4a_human RAB4A [1] = target: rab4a_human RAB4A (UniProt P20338)
rab4a_human RAB4A [2] = target: rab4a_human RAB4A (UniProt P20338); remark: listed apart in the source

rab4a_human RAB4A, sequence (P20338 whole entry): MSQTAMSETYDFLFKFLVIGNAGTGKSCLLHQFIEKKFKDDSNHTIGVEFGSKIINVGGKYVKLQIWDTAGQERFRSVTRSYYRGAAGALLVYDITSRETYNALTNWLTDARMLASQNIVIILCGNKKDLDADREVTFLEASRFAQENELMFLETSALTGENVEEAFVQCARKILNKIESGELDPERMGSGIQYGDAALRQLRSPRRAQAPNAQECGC
Protein NDRG1 (Homo sapiens), Q92597 L146P, sequence (Q92597 whole entry L146P): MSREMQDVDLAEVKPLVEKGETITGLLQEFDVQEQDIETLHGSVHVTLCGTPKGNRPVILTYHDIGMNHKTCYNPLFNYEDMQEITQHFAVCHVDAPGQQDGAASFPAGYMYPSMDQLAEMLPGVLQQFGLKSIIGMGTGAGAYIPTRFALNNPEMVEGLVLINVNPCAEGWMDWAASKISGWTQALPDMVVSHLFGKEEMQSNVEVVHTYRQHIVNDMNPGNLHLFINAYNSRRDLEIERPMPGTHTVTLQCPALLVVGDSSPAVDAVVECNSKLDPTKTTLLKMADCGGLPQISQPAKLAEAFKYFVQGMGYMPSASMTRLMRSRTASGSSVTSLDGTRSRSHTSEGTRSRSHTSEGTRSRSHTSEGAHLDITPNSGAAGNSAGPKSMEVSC
Protein NDRG1 (Homo sapiens), Q92597 R234Q, sequence (Q92597 whole entry R234Q): as the sequence (Q92597 whole entry L146P) above, with P146L, R234Q counted along it

Substance	effect of a mutation on the interaction (rab4a_human RAB4A [1])	effect of a mutation on the interaction (rab4a_human RAB4A [2])
Protein NDRG1 (Homo sapiens), Q92597 L146P	with no effect	decreasing interaction strength
Protein NDRG1 (Homo sapiens), Q92597 R234Q	with no effect	
